From the supplement of paper PMC10724198
± gives the standard deviation of the averaged measurements.

Tests used:
[1] = system: Saccharomyces cerevisiae; test: protein stability index of tFT-peptide fusion (C-terminal peptide) (PSI (0-1 scale)); higher = more stable (slower turnover); settings: genetic background: wild type; temperature: 30 C
[2] = system: Saccharomyces cerevisiae; test: as above
Method: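 MPS profiling in S. cerevisiae of the tFT-X12 degron library: putative degron peptides plus stable controls, 12 aa, fused to the C-terminus of a sfGFP-mCherry timer. Cells are FACS-sorted into 8 mCherry/sfGFP bins and deep-sequenced. PSI runs from 0 (unstable) to 1 (stable). Backgrounds are wild type, das1Δ and doa10Δ at 30 °C, and wild type, das1Δ, cdc34-1 and cdc53-1 at 37 °C; 2-3 technical replicates each.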

[3] = genetic background: cdc34-1, temperature: 37 C
[4] = genetic background: cdc53-1, temperature: 37 C
[5] = genetic background: das1 deletion, temperature: 30 C
[6] = genetic background: das1 deletion, temperature: 37 C
[7] = genetic background: doa10 deletion, temperature: 30 C
[8] = genetic background: wild type, temperature: 30 C
[9] = genetic background: wild type, temperature: 37 C
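Note: PSI is a weighted mean of sequencing reads over stability bins, variants kept only with over 10 reads, mCherry proximal and sfGFP distal, peptide attached via GGGS linker.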

Sequence	protein stability index [1]	protein stability index [2, 3]	protein stability index [2, 4]	protein stability index [2, 5]	protein stability index [2, 6]	protein stability index [2, 7]	protein stability index [2, 8]	protein stability index [2, 9]
GTEFSNVITYLV	0.493 ± 0.08	0.713 ± 0.018	0.758 ± 0.018	0.6288 ± 0.003	0.775 ± 0.021	0.34 ± 0.0043	0.389 ± 0.027	0.6103 ± 0.0027
GTLVFTYLVLRC	0.314 ± 0.008	0.0997 ± 0.012	0.0693 ± 0.0078	0.197 ± 0.02	0.252 ± 0.032	0.365 ± 0.027	0.167 ± 0.035	0.229 ± 0.0083
GTRAGNPDRQRS	0.706 ± 0.013	0.678 ± 0.052	0.759 ± 0.011	0.638 ± 0.034	0.714 ± 0.025	0.656 ± 0.021	0.632 ± 0.022	0.706 ± 0.016
GVRAGVRRAGVG	0.402 ± 0.011	0.308 ± 0.019	0.418 ± 0.0075	0.399 ± 0.0055	0.414 ± 0.014	0.3927 ± 0.0033	0.382 ± 0.0068	0.402 ± 0.0045
GVRRRQLIWSVC	0.241 ± 0.092	0.532 ± 0.022	0.644 ± 0.014	0.468 ± 0.024	0.656 ± 0.0066	0.145 ± 0.0088	0.164 ± 0.039	0.28 ± 0.011
GVVCWLVVTGFL	0.429 ± 0.013	0.3865 ± 0.0018	0.48 ± 0.0076	0.286 ± 0.058	0.524 ± 0.0095	0.255 ± 0.0087	0.3 ± 0.019	0.463 ± 0.052
GVVVGVLLVCGW	0.36 ± 0.0081	0.268 ± 0.028	0.435 ± 0.0061	0.28 ± 0.037	0.489 ± 0.0051	0.223 ± 0.016	0.265 ± 0.013	0.4614 ± 0.0016
HCNRLIFWYKCT	0.288 ± 0.0074	0.508 ± 0.082	0.745 ± 0.025	0.656 ± 0.052	0.723 ± 0.035	0.189 ± 0.0086	0.224 ± 0.032	0.298 ± 0.0068
HDLRRRVVSVMV	0.372 ± 0.061	0.48 ± 0.046	0.4601 ± 0.0032	0.337 ± 0.025	0.55 ± 0.022	0.258 ± 0.013	0.297 ± 0.03	0.47615 ± 0.00044
HFLRYCSWFGLL	0.15 ± 0.0097	0.656 ± 0.032	0.745 ± 0.015	0.6558 ± 0.0024	0.781 ± 0.013	0.142 ± 0.014	0.171 ± 0.017	0.353 ± 0.0095
HNLIRKHAKESS	0.394 ± 0.085	0.63 ± 0.083	0.702 ± 0.0032	0.641 ± 0.034	0.699 ± 0.015	0.171 ± 0.036	0.249 ± 0.016	0.459 ± 0.054
HPLYWRCVVVLN	0.15 ± 0.044	0.213 ± 0.034	0.243 ± 0.024	0.211 ± 0.026	0.3733 ± 0.00077	0.073 ± 0.012	0.066 ± 0.031	0.0862 ± 0.015
HSPPVPFPPPTS	0.358 ± 0.033	0.647 ± 0.068	0.733 ± 0.035	0.651 ± 0.034	0.72 ± 0.0074	0.688 ± 0.012	0.672 ± 0.017	0.694 ± 0.024
HVRLRFQPVLFV	0.462 ± 0.0049	0.527 ± 0.027	0.5455 ± 0.0014	0.404 ± 0.029	0.5487 ± 0.0044	0.356 ± 0.01	0.382 ± 0.026	0.5139 ± 0.0024
HVSVIRRGICCA	0.374 ± 0.034	0.266 ± 0.014	0.2978 ± 0.0018	0.271 ± 0.026	0.398 ± 0.0092	0.233 ± 0.0093	0.278 ± 0.015	0.3675 ± 0.0027
ICQLLKFPLFWC	0.113 ± 0.034	0.542 ± 0.025	0.567 ± 0.024	0.521 ± 0.024	0.7207 ± 0.0058	0.311 ± 0.019	0.288 ± 0.026	0.4916 ± 0.0032
ICSRCLVTVLSC	0.311 ± 0.017	0.4098 ± 0.0039	0.445 ± 0.0063	0.296 ± 0.037	0.514 ± 0.0071	0.198 ± 0.0024	0.217 ± 0.039	0.367 ± 0.015
ICWVSLYFSMLV	0.406 ± 0.084	0.457 ± 0.018	0.479 ± 0.019	0.373 ± 0.018	0.5069 ± 0.0045	0.3348 ± 0.00038	0.333 ± 0.025	0.464 ± 0.028
IFAWPFSATIPW	0.784 ± 0.021	0.74 ± 0.022	0.81258 ± 0.00076	0.696 ± 0.012	0.80758 ± 0.00033	0.706 ± 0.0086	0.7 ± 0.011	0.788 ± 0.032
IFFYPFLIFCFV	0.325 ± 0.018	0.251 ± 0.022	0.281 ± 0.026	0.267 ± 0.027	0.396 ± 0.019	0.2722 ± 0.00072	0.238 ± 0.032	0.332 ± 0.012
